Assays:
Test in all cases: co-IP; 293T cells co-transfected with 1 µg Vpu-cmyc variant and 2 µg HA-tetherin; lysis in 50 mM Tris-HCl pH 7.4, 150 mM NaCl, 1% Triton X-100, 1% CHAPS; IP with anti-myc antibody and protein G agarose at 4°C; blot with anti-HA; tetherin quantified by densitometry, normalized by tubulin, Vpu WT = 100%
[1] = target: Vpu TM CΔ2I (HIV-1 NL4-3)
[2] = target: Vpu TM M3IT (HIV-1 NL4-3)
[3] = target: Vpu TM M3IV (HIV-1 NL4-3)
[4] = target: Vpu TM NΔ2I (HIV-1 NL4-3)

Chain of HA-tetherin (Q10589 1-161): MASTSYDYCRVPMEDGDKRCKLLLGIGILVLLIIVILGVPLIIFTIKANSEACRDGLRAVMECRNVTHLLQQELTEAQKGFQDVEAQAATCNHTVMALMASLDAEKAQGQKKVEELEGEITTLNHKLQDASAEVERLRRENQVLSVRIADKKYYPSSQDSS

For “HA-tetherin (from UniProt Q10589 1-161) (natural protein)”, the percent of tetherin bound relative to Vpu WT (100%) [1] was 25%, the percent of tetherin bound relative to Vpu WT (100%) [2] was 10% and the percent of tetherin bound relative to Vpu WT (100%) [3] was over 80%. It also gave a percent of tetherin bound relative to Vpu WT (100%) [4] of 50%.

From publication PMC3107245
